From article PMC4881466

Molecular target: Lys69 (UniProt position 69, KALAVKVFKMT)
Test: UV-vis
Details: not stated (100 mM buffers); 100 mM sodium phosphate/citrate (pH 4-6), sodium phosphate (pH 6.2-8.6), sodium carbonate (pH > 8.6); ferrous-deoxy, no exogenous ligand

Substance: Non-symbiotic hemoglobin 2 (AHb2) H66L mutant (Arabidopsis thaliana; H66L)
- pKa: 10 ± 0.2
